Experimental data: the DeepSol protein solubility set

experiment: soluble on expression in E. coli; label from the status in PepcDB or PDB records

Sequence	soluble on expression in E. coli
MGSDKIHHHHHHMFTMICPVCEKSVNDMQGLALHFRSGSIHGDGKHASWISAEQIEHGISDSDLSDVLIRIFRPEESLIRWARMEFIAKFYAHPHPFMEAMQKPTVPVLLGYVIEHRFFLKNWIRTLSMVIHSTTSDDAFEYEVENVATEYIGLNGKPSHLELLLRMGEALGMSRKRIMEYSPLPETSQAIEVWYGISNRYSWIDTMGAMHVLELVADRTLVDDGSPIHYFNPEILKGSDYPEAVKNFLMEGYEADVGHAGEALKIVQAATMDDLTTRSIMLRSMDAFYVYLNARMRRARMLEASWGE	not soluble
MGSDKIHHHHHHMSTPPVDVCYKVNAPLSSQQFVELLAKTSLGPRRPLDDETAITGMLKHANLLVSAWQGETLVGIARSVTDFHFCCYLSDLAVSDDFQHAGIGKKLIQQTAQQLGKGCKIILLAAPLAVDYYPKLGFEKHNSAWLMAASDLHSEA	not soluble
SMKDHTEGLSDKEQRFVDKLYTGLIQGQRACLAEAITLVESTHSRKKELAQVLLQKVLLYHREQEQSNKGKPLAFRVGLSGPPGAGKSTFIEYFGKMLTERGHKLSVLAVDPSSCTSGGSLLGDKTRMTELSRDMNAYIRPSPTRGTLGGVTRTTNEAILLCEGAGYDIILIETVGVGQSEFAVADMVDMFVLLLPPAGGDELQGIKRGIIEMADLVAVTKSDGDLIVPARRIQAEYVSALKLLRKRSQVWKPKVIRISARSGEGISEMWDKMKDFQDLMLASGELTAKRRKQQKVWMWNLIQESVLEHFRTHPTVREQIPLLEQKVLIGALSPGLAADFLLKAFKSRD	soluble
MSLGSIPNDIKVPLVYIEIDNSNALSGTPALAQKVLVIGQQLGTGTASPLTLNRITNSESQMDALFGKGSMLARSLKMFRKSNDYTDVYALGVADLSAGSAAKGEITIAATTAKAGVIALLIAGESVQVGVDEAATAATIATAMIAKINANTNLPVTAALKAATTETVELTAKWKGQTTNDIDIRYNYYDGEQLPQGVTLTVVEMTGGAGTPDMDAVIAAIPNEWYNHIVMPYNDTQSMNKLRDELVNRWGPLKMIEGIAYTAFRGTFAESGAFGVARNDYLFTCMGTNKAPHSPWEWAAAYAGQASYSLGIDPARPLQTLVMTSLLPPAKEIQWDPTERNLLLGDGIATYMVTPSGEVAIEREVSMYRENSYGDPDPSYLDITTPATLGYLRYSLRVMVTNRFPRHKLAGDDVLARLDPGQPVVTPKIMRNAMLELANNDWVPKGLMEDFDGFKETLEVYRDSSDQNRLNCVFKPDIVNQFRIFAALMQFKL	not soluble
MSLDTDREQILAEFLSIDRTKVRRIEHHRCHAAYSYYASKYRNKPILALTVDGWGDGKDATIGIFDEKGKYSRVYESDQCAIGRIYRYMTLMLGMKPNEHEFKVMGLAPYGKETHAKKALDILRNTLYVDGEEFKWKEKPKDSYFWFKERFEGVRFDNIAFALQKWTEELLVEWVKNAINKYKIHDIVISGGVAMNIKAMGKIADLPEVKSLFIGGSASDESMAISSGICLAEDLTKESSREWNSNTIESLTRLYLGPSASLKEEERVVDGLDKKKFEIIENPENKRIAEVLFEGKILARAAGRMEFGQRALGNRSILADPIHLKIKEKINSAIKSRDFWMPFAPVVMDTFVERYLLNPKSLESPHMTLSFDTTEEGYDAMSAACHPADRTARAQILKEHDNPELYSLLKAFQHLTGRGALLNTSFNLHGFPIVNSPSEAVDVLVNSGLDGLILNYFLILKKEGHHHHHH	not soluble
MEQLGSEPETYQIMKTIEKSIIENDNVDLEQYLLFWEHVCNVMCSWGTIFSFVVKDVTAKLEKLTQMRSSDPDSYRTIIGMATKESENGTIRNQKPNRSGTGHLMVLNRALEFVIDLLDGVFTSNDENVSTIARSSYDKHLSQLHSWPIRTAVAAALYTLPRKPEFLCRLRGDMPEDDDNQFHDIFNRDGRDIVRRVNKLVENFELTDYNPSA	not soluble
MKITHCKLKKEVQKEPLRSFVPEVTARSAADILGIHPDSAALFYRKIRTVTNHRLALAADEVFECPAGPGASCFGVRRKGRRGRGAAGKAVVFGIPKRNGRAYTVAEDDAEPETLPPAVKKKIMPDGIVYADSPGSRGKSDAGGFTRCRINRSKEFADRRNHINGIGNFWNQAKRALRKYNGIDRKPFPPLLRECEFRFNFGTPSRQLKILRDRCGILEHHHHHH	soluble
GPGSMAASQLIATRFTDLLAEGNIESALKYIANDVVYNTWLGVVYGKDNVEVFLRDNVRFVHHGRNYNRWKQVQHSLDASLKQFTVNDVSGYDESALDVRSYYDSEGYDSQGYATFERDGTIASHAKFAVFHVKVKETVVLRNNKVVLVNVSKRA	not soluble
MISFNNVSKVYESGGQSVHAVEDVTLSVEKGEIFGIIGFSGAGKSTLLRLVNMLERPTAGTISIDDKDITSLSTKELRKLRQRIGMIFQSFNLFNSRTVFGNIAYPLKLAKVPKNEIKERVNELLKFVGLEDKANNYPEQLSGGQKQRVGIARALATSPDILICDEATSALDPETTTEILNLLKKVNREYNLTILLITHEMHVVKEICHRVAVMEKGKVIEEGKLFDVFTQPKTTTTQNFVRSVINDHLPESVLAKIQNGGQIYRLTFTGEETGQPVLSYIAKNYNVDVNVLYGNIIELQNVLFGNLLVELQGEQREIQKALQHLRLQVQLKEVEAHAS	not soluble
SMDPPPSETHKLVVVGGGGVGKSALTIQFIQSYFVSDYDPTIEDSYTKICSVDGIPARLDILDTAGQEEFGAMREQYMRAGHGFLLVFAINDRQSFNEVGKLFTQILRVKDRDDFPVVLVGNKADLESQRQVPRSEASAFGASHHVAYFEASAKLRLNVDEAFEQLVRAVRKYQEQELPPS	soluble
MIIAGVDIGNSTTEVALAKVNGDEIRFLASGISNTTGIKGTPQNVEGVRHALEDAVRKANLTIKDIDLLRINEATPVISDIAMEAITETIITESTMIGHNPTTPGGVGLGIGITIPIFELEKCKHGEEVIVVIPKNVDYEDAAKIINNAFSKGVEVKGAIAQKDDGVLIATRLQRRIPIVDEVKQIEKVPIGMLACVEVAEPGYTIKTLSNPYGIASVFNLTAEETKNIVPVARALIGNRSAVVIRTPKGEVQERKIPAGTLIIKGNNRTFTVDIEEGAEAIMSAVESTWPLVDAEGTPGTNVGGLIARIKETMADVTGQDSSNIQIQDVLAVDTLVRQKVKGGIAEEFSSENAVALAAMVKSSKLPMEKVAQKIEQEIGIAVEIAGIEANMAIIGALTTPGTELPLAILDLGGGSTDAALMTKNGEVKSVHMAGAGEMVNMLIKTELGIEDKYLVEDIKKYPVCRVESLFSIRLEDGTVRFFKEPLDPRTFARVCLLREDGLLPLPPELNMEKVINVRRNAKRKVFVTNALRALSKVAPAGNIRLIDFVVMVGGSALDFEIPEMISDTLAGYGIVAGRGNIRNVEGPRNAVATGLVLSRCKRK	not soluble
MGSDKIHHHHHHMLDVHKDIKKIFHEEQVLAEAAARYGFSKDQVRFLADAENYVYECMKDNQPYILKITHTIRRSSDYMMGEMEWLRHLAIGGISVAKPLPSLNGKDVEAVPDGNGGSFLLRVYEKAPGQKVDESDWNETLFYELGRYTGSMHSLTKSYKLSNPAFKRAAWAEEEQLKLRKYVPEDQIKVFQQADSLMNELRRLPKSQDNYGLVHADLHHGNFNWDHGKITAFDFDDIGYNWFVNDISILLYNVLWYPVVPYDDKAAFTEEFMTHFMKGYWEENELDPAWLMIIPDFLRLRHMLIYGLLHQMFDLNTIGEEEKEMLAGFRRDIENGTPITAFDFSALV	not soluble
MGSSHHHHHHSSGLVPRGSVGGCLAKDGLQQSKCPDTTPKRRRASSLSRDAERRAYQWCREYLGGAWRRVQPEELRVYPVSGGLSNLLFRCSLPDHLPSVGEEPREVLLRLYGAILQGVDSLVLESVMFAILAERSLGPQLYGVFPEGRLEQYIPSRPLKTQELREPVLSAAIATKMAQFHGMEMPFTKEPHWLFGTMERYLKQIQDLPPTGLPEMNLLEMYSLKDEMGNLRKLLESTPSPVVFCHNDIQEGNILLLSEPENADSLMLVDFEYSSYNYRGFDIGNHFCEWVYDYTHEEWPFYKARPTDYPTQEQQLHFIRHYLAEAKKGETLSQEEQRKLEEDLLVEVSRYALASHFFWGLWSILQASMSTIEFGYLDYAQSRFQFYFQQKGQLTSVHSSS	soluble
GPLGSLVNVIRRESGNPDLLELLMDLNCYTLEVTEGYLKKVNVTEVNGDNVLGPIHVITTVVSSLVRNGLLIQSSKFISKVLLTVESIVMSLPKDETMLGGIFWLSNLSRLPAFAANQKTLYEANGGDEKDKLTLIYLNDLENETLKVFDKIYSTWLVKFMKHASAHIEIFDMVLNEKLFKNSGDEKFAKLFTFLNEFDAVLCKFQVVDSMHTKIFNDTLKYLNVMLFNDLITKCPALNWKYGYEVDRNIERLVSWFEPRIEDVRPNLIQIIQAVKILQLKISNLNEFKLLFDFWYALNPAQIQAILLKYKPANKGEAGVPNEILNYLANVIKRENLSLPGKMEIMLSAQFDSAKNHLRYDTSAITQNSNTEGLATVSKIIKLDRK	soluble
SAMRQTPLTCSGHTRPVVDLAFSGITPYGYFLISACKDGKPMLRQGDTGDWIGTFLGHKGAVWGATLNTEATKAATAAADFTAKVWDAVTGDEVLTLAHKHIVKSVNFTQDSNYLLTGGNDKVLRIYDLSKPEAEPQEIAGHTSAIKKALWCNNDQQILSAADDKTIRLWDKNTNEAVKTLSFDASVSSMEYIPDGETLVITYGRTIAFYNAHSLDLIKTVDAPASIHSASLHPDKDFFVAGGDDFKLYKYDYTTKEEMESYKGHFGPVHCVRFSPDGELYASGSEDGTLRLWQTAVGKTYGLWKCVLPEELSSENSEALYCPPAEIKA	soluble
MTGFSISMDLAPKQSRSDRSTHEGTVEQRLKFFMQDVTGRALVMMESATQGQHGIAMDLVQEAFIALHKSYADKATDEWYPLFYTILNNKLQDWRRKEARRSNPFSFFKKVSLDSDEEVTDVVDETTPNPFEFLDQAVTIEEIQAAIAQLPVRQQQAFMLRAWEGFDTQTTAQIMNCSEGSVKTHYHRAIQGLRASLAHLNPSLGGSSDESR	not soluble
DWDSREKEAQRVAQRVTARTVSEIEYYHRESTQIAQALVENQARIEGIYKYFSLSMPDYFYWQLERKASPYISVSLYENVDDLYVRNDFVTGVAIAFQDYKEVYVSTKDKRSGEKIRAEDFKPAGNSFAIPVSDPVSDQDLGVIYISLDPAVLYHAIDNTRGHTPMAVTVTSPFDTEIFHMGETVDKESENWLVGLTSHGYQVQVAVPKN	not soluble
MSLGGANGKSGLRIWRNARLATMADGVAGLGIVEKGAIATRDGLIIYAGAEASMPALAGPGAETVDCEGRWITPGLIDCHTHLVYAGNRANEFEMRLAGATYEEVARAGGGIVSSVKSLRAANEDELVAQTLPRLDALMAEGVTTVEVKSGYGLDLDNEKKSLRAARRLANERPVTIRTTCLAAHALPPEAKGDKEAFVDLVAGTILPGVAAEKLADAVDGFCEGIAFSPEQIARVFDKARALGLPVKLHADQLSNLHGAALAASYGALSADHLEYTDEAGAAAMAKAGTVATILPGAYYFIRETKKPPVDLFRRHGVKMAVATDSNPGTSPLTSLLLTMNMAATLFGLTVDECLAGVTREAARALGLLDKTGTLEAGKSADLAIWDIERPAELVYRMGFNPLHARIWRGQGSLSAPNTQPAFTIRTAKGIITITTDPNSSSVDKLAAALEHHHHHH	soluble
MSLSHIRPDFPEPYGLPVDGLRGKTSIFSHPVYLFLREFSLQDSRGGSLSKKAESLSSGKITIGTKEKVIIINELRQCHPLSQLLVIADLPRSTFYYHVKRLNAPDPYQLVKQVILRIYHQHKGRYGYRRIRLACRNESILLNGKTIRKLMKELGISSLIRRKKYRTYRGEQGRTCNNLLKRQFYADRPNQKWVTDVTEFKVDGRKLYLSPIMDLYNGEIVSYNLTERPLASMVKSMLLDAVEQLNKDDKPLLHSDQGWQYQMPRWQRWLSDNGITQSMSRRGNCLDNAAMESFFSTLKEGHHHHHH	not soluble
